# Substitutions are numbered along the chain they refer to.
# T1: recombinant human CD123-Fc (human, UniProt P26951 19-305)
# T1 construct: not shown: Fc part of CD123-Fc
# T1 sequence: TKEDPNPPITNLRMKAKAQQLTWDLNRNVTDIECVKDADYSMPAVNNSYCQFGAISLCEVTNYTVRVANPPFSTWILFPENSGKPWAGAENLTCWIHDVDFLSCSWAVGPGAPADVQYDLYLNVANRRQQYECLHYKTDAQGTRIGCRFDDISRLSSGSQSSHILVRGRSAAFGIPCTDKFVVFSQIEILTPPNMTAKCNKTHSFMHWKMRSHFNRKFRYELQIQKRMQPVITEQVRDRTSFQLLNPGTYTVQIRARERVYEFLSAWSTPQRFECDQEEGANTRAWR
# B1: SEQ ID NO: 318 (designed binder)
# chain: MGSWVEFWFRLEAIDSRLWALGGSEAELAAFEKEIAAFESELQAYKGKGNPEVEWLREEAAAIREDLQAYRHN
# notes: D domain, on phage
# B2: SEQ ID NO: 369 (designed binder)
# chain: MGSWFEFDDRLWAIENRLWALGGSEAELAAFEKEIAAFESELQAYKGKGNPEVEVLRDNAAWIREILQAYRHN
# notes: D domain, on phage
# B3: SEQ ID NO: 317 (designed binder)
# chain: B2 chain with F5A, D8E, N16D, V55Y, D58E, N59E, W62A, E65F, I66E
# notes: D domain, on phage
# B4: SEQ ID NO: 370 (designed binder)
# chain: B2 chain with F5Y, D8W, W12D, I14L, N16D, V55Y, N59S, W62F, I66E
# notes: D domain, on phage
# B5: SEQ ID NO: 328 (designed binder)
# chain: MGSWVEFHERLEAIEDRLMALGGSEAELAAFEKEIAAFESELQAYKGKGNPEVEYLREDAAFIRQLLQAYRHN
# notes: D domain, on phage
# B6: SEQ ID NO: 332 (designed binder)
# chain: B5 chain with E9D, M19L, Y55D, D59Y, F62G, Q65W, L66F
# notes: D domain, on phage
# B7: SEQ ID NO: 363 (designed binder)
# chain: B1 chain with W8D, F9M, E12S, D15W, S16E, W19I, E59D, A62E, D66F
# notes: D domain, on phage
# B8: SEQ ID NO: 364 (designed binder)
# chain: B1 chain with W8D, F9Q, E12D, D15Y, S16E, W19Y, E58D, A62E, D66H
# notes: D domain, on phage
# B9: SEQ ID NO: 319 (designed binder)
# chain: B1 chain with F9Q, D15E, W55F, A62E, E65W, D66E
# notes: D domain, on phage
# B10: SEQ ID NO: 383 (designed binder)
# chain: B2 chain with D8Q, E15D, V55E, N59H, W62M, E65W, I66E
# notes: D domain, on phage
# B11: SEQ ID NO: 381 (designed binder)
# chain: B1 chain with V5F, W8H, F9D, E12W, S16E, W55I, A62D, E65L
# notes: D domain, on phage
# B12: SEQ ID NO: 322 (designed binder)
# chain: B1 chain with V5Y, W8E, F9T, D15Y, S16D, W55L, E58V, A62E
# notes: D domain, on phage
# B13: SEQ ID NO: 379 (designed binder)
# chain: B1 chain with V5F, F9D, D15W, S16E, W19D, W55E, E58R, A62I
# notes: D domain, on phage
# B14: SEQ ID NO: 372 (designed binder)
# chain: B2 chain with F5D, D8V, N16E, V55E, D58I, N59Q, W62I, I66A
# notes: D domain, on phage
# B15: SEQ ID NO: 316 (designed binder)
# chain: B5 chain with V5T, E9D, E15D, M19W, D59E, F62Q, Q65W, L66E
# notes: D domain, on phage
# B16: SEQ ID NO: 330 (designed binder)
# chain: B5 chain with V5I, H8Y, E9D, E15Y, M19D, Y55W, Q65S, L66W
# notes: D domain, on phage
# B17: SEQ ID NO: 331 (designed binder)
# chain: B5 chain with H8D, E9Q, E15Y, M19Y, Y55W, F62Q, Q65K, L66W
# notes: D domain, on phage
# B18: SEQ ID NO: 321 (designed binder)
# chain: B1 chain with V5S, W8I, F9T, S16D, W55I, A62E, E65Q, D66H
# notes: D domain, on phage
# B19: SEQ ID NO: 329 (designed binder)
# chain: B5 chain with E9D, M19Y, Y55W, F62Y, Q65S, L66I
# notes: D domain, on phage
# B20: SEQ ID NO: 371 (designed binder)
# chain: B1 chain with V5M, W8V, F9D, E12D, D15E, E58I, A62F, D66E
# notes: D domain, on phage
# B21: SEQ ID NO: 367 (designed binder)
# chain: B1 chain with W8Y, F9S, E12D, D15E, S16D, E58I, E59A, A62S
# notes: D domain, on phage
# B22: SEQ ID NO: 368 (designed binder)
# chain: B2 chain with F5Y, D8Y, D9E, W12D, N16E, N59W, I66D
# notes: D domain, on phage
# B23: SEQ ID NO: 382 (designed binder)
# chain: B2 chain with F5Y, D8E, E15D, V55E, D58V, N59H, W62D, E65D, I66D
# notes: D domain, on phage
# B24: SEQ ID NO: 380 (designed binder)
# chain: B2 chain with D8E, W12E, E15Y, N16Q, W19D, V55W, N59E, E65S, I66D
# notes: D domain, on phage
# B25: SEQ ID NO: 320 (designed binder)
# chain: B1 chain with V5S, F9Q, D15E, S16D, E59N, A62M, E65D, D66E
# notes: D domain, on phage
# B26: SEQ ID NO: 397 (designed binder)
# chain: B1 chain with V5M, W8E, F9E, E12W, E58S, A62W, E65M, D66E
# notes: D domain, on phage
# B27: SEQ ID NO: 409 (designed binder)
# chain: MGSWVEFHMRLDAIYERLDALGGSEAELAAFEKEIAAFESELQAYKGKGNPEVEWLRTAAANIRVELQAYRHN
# notes: D domain, on phage
# B28: SEQ ID NO: 415 (designed binder)
# chain: B27 chain with H8E, Y15V, E16G, D19Y, W55K, T58R, A59W, V65S
# notes: D domain, on phage
# B29: SEQ ID NO: 408 (designed binder)
# chain: B27 chain with H8Y, M9T, E16G, T58Q, A59V, V65M
# notes: D domain, on phage
# B30: SEQ ID NO: 413 (designed binder)
# chain: B27 chain with V5S, M9V, E16A, W55R, T58E, A59W, V65R
# notes: D domain, on phage
# B31: SEQ ID NO: 416 (designed binder)
# chain: B27 chain with H8N, M9I, D19Y, W55K, T58H, A59W, N62S, V65R
# notes: D domain, on phage
# B32: SEQ ID NO: 412 (designed binder)
# chain: MGSWSEFYVRVDAIYARLSALGGSEAELAAFEKEIAAFESELQAYKGKGNPEVEKLRVWAANIRHELQAYRHN
# notes: D domain, on phage
# B33: SEQ ID NO: 420 (designed binder)
# chain: B27 chain with H8N, M9W, E16D, D19V, T58V, A59S, N62K, V65G
# notes: D domain, on phage
# B34: SEQ ID NO: 404 (designed binder)
# chain: B27 chain with V5I, H8N, D19V, T58K, A59V, V65L
# notes: D domain, on phage
# B35: SEQ ID NO: 417 (designed binder)
# chain: B27 chain with V5H, H8G, M9V, E16D, D19M, W55F, T58Q, V65S
# notes: D domain, on phage
# B36: SEQ ID NO: 325 (designed binder)
# chain: B27 chain with V5T, H8S, M9I, D12E, E16D, D19V, W55V, A59Y, V65H
# notes: D domain, on phage
# B37: SEQ ID NO: 418 (designed binder)
# chain: B27 chain with V5T, H8N, M9L, E16D, D19M, T58A, A59S, N62A
# notes: D domain, on phage
# B38: SEQ ID NO: 419 (designed binder)
# chain: B27 chain with V5T, H8N, M9L, E16G, D19S, W55F, T58A
# notes: D domain, on phage
# B39: SEQ ID NO: 414 (designed binder)
# chain: B27 chain with M9L, E16G, D19M, W55N, T58V, A59W, V65N
# notes: D domain, on phage
# B40: SEQ ID NO: 403 (designed binder)
# chain: B27 chain with V5S, H8N, D19T, T58H, A59S, N62L, V65L
# notes: D domain, on phage
# B41: SEQ ID NO: 324 (designed binder)
# chain: MGSWYEFVIRLEAIEDRLWALGGSEAELAAFEKEIAAFESELQAYKGKGNPEVEVLRWYAADIRHELQAYRHN
# notes: D domain, on phage
# B42: SEQ ID NO: 402 (designed binder)
# chain: B27 chain with V5S, H8N, D19T, T58H, A59S, N62R, V65L
# notes: D domain, on phage
# B43: SEQ ID NO: 410 (designed binder)
# chain: B32 chain with S5Y, Y8A, V9I, V11L, A16E, S19H, K55Y, H65T
# notes: D domain, on phage
# B44: SEQ ID NO: 326 (designed binder)
# chain: B41 chain with Y5T, V8S, E15Y, W19V, W58T, D62F
# notes: D domain, on phage
# B45: SEQ ID NO: 411 (designed binder)
# chain: B27 chain with V5N, H8V, M9I, D19L, W55Y, T58M, V65M
# notes: D domain, on phage
# B46: SEQ ID NO: 406 (designed binder)
# chain: B27 chain with V5Y, H8A, M9K, D19V, T58S, A59S, V65E
# notes: D domain, on phage
# B47: SEQ ID NO: 405 (designed binder)
# chain: B27 chain with V5Y, M9H, D19L, T58S, A59S, V65K
# notes: D domain, on phage
# B48: SEQ ID NO: 407 (designed binder)
# chain: B27 chain with V5T, H8Y, M9V, T58M, A59V, V65T
# notes: D domain, on phage
# B49: SEQ ID NO: 323 (designed binder)
# chain: B41 chain with Y5T, V8Y, I9Y, V55F, W58V, Y59E, D62N, H65D, E66M
# notes: D domain, on phage
# Target: T1, recombinant human CD123-Fc
# Assay: phage ELISA, captured CD123-Fc
# Description: Individual colonies containing phagemid from BCMA panning output were picked and phage were rescued in 96-well format using VCSM13 helper phage following standard protocols. To assay target binding by ELISA, 96-well plates were coated with 1.3 microg/ml goat anti-human IgG1-Fc antibody followed by incubation with 5 nM of recombinant human target (BCMA-Fc, CD123-Fc, AFP, or AFP123) or IgG1-Fc. 50 microl of rescued phage diluted 5× in ELISA blocking buffer was then added to each well. Binding was detected using an HRP-conjugated anti-M13 antibody and the ELISA ratio for each sequence is reported as the absorbance at 450 nm for target (i.e., BCMA-Fc, CD123-Fc, AFP, or AFP123) divided by that for IgG1-Fc averaged across all screened wells containing that clone.
row,Binder,ELISA_avg [ratio A450 target/IgG1-Fc]
1,B1,3.2
2,B2,4.2
3,B3,6.2
4,B4,9.7
5,B5,3.7
6,B6,3.3
7,B7,3.3
8,B8,10.5
9,B9,7.7
10,B10,3.2
11,B11,3.5
12,B12,3.2
13,B13,10.3
14,B14,6
15,B15,5.8
16,B16,7.5
17,B17,5.1
18,B18,3.3
19,B19,4.6
20,B20,5.8
21,B21,9.4
22,B22,8.4
23,B23,4.9
24,B24,5.5
25,B25,4.7

row,Binder,ELISA_avg [ratio A450 target/IgG1-Fc]
1,B26,3.2
2,B27,9.1
3,B28,25.3
4,B29,14.4
5,B30,14.4
6,B31,13.4
7,B32,14.7
8,B33,9.3
9,B34,11.4
10,B35,15.6
11,B36,11.9
12,B37,14.4
13,B38,19.3
14,B39,17.5
15,B40,11.4
16,B41,6.4
17,B42,13.7
18,B43,25.5
19,B44,10.2
20,B45,16.6
21,B46,15.3
22,B47,11.9
23,B48,16
24,B49,7.5

# From patent US20230125550A1 (ARCELLX, published 2023)
